In PMC7506995 (EMBO Molecular Medicine, 2020):
Like-named read-outs stand apart in the source and are kept apart here.

Experiments:
human recPrP_(23-230) [1] = molecular target: T1, human recPrP_(23-230) (Homo sapiens, UniProt P04156); test: ELISA; conditions: both partners purified
T1 construct: source: recombinant, produced as described (Lysek & Wuthrich, 2004)

[2] = molecular target: T2, full-length recombinant mouse PrP (recPrP23-231) (Mus musculus, UniProt P04925); test: ELISA; conditions: both partners purified
T2 construct: source: recombinant, produced as described (Lysek & Wuthrich, 2004)

human recPrP_(23-230) [3] = molecular target: T1, human recPrP_(23-230)
peptide P17 = molecular target: T3, peptide P17 (Mus musculus); test: co-IP; conditions: both partners purified
T3 chain: TWGQPHGGGWGQ

[4] = molecular target: T4, full-length recombinant mouse PrP (recPrP_(23-231)) (Mus musculus, UniProt P04925); test: SPR; […]; 25°C; 10 mM Tris/HCl pH 8.5, 500 mM NaCl, 3 mM EDTA, 0.05% Tween-20; 1:1 Langmuir fit; ProteOn XPR36; conditions: both partners purified
T4 construct: source: recombinant, produced as described (Lysek & Wuthrich, 2004)

[5] = molecular target: T2, full-length recombinant mouse PrP …; test: ELISA; conditions: both partners purified; remark: listed apart in the source

B1: DK_VH3-07 Fab (Fab, V domains shown)
VH: EVQLVESGGGLVQPGGSLRLSCAASGFTFSSYWMSWVRQAPGKGLEWVANIKQDGSEKYYVDSVKGRFTISRDNAKNSLYLQMNSLRAEDTAVYYCARSYGGYFDYWGQGTLVTVSS
VL: QSALTQPASVSGSPGQSITISCTGTSSDVGGYNYVSWYQQHPGKAPKLMIYEVSNRPSGVSNRFSGSKSGNTASLTISGLQAEDEADYYCTSYTSSSTHVVFGGGTKLTVL
notes: source: expressed in bacteria (pPE2 vector), purified
EC50 (human recPrP_(23-230) [1]): 62800 nM | binding result (human recPrP_(23-230) [1]): no binding (tested: Fabs tested starting from 3 μM)

B2: Fab44 (Fab, V domains shown)
VH: QVQLVESGGGVVQPGRSLRLSCAASGFTFSSYGMHWVRQAPGKGLEWVAVISYEGSNKYYADSVKGRFTISRDNSKNTLYLQMNSLRAEDTAVYYCARVAYAVGSSYRSSSYSPGFDVWGQGTLVTVSS
VL: not shown
notes: source: E. coli BL21(DE3), purified (IMAC)
binding result [2]: binds

B3: Fab13 (Fab, V domains shown)
VH: QVQLVESGGGVVQPGRSLRLSCAASGFTFSSYGMHWVRQAPGKGLEWVAVISYEGSNKYYADSVKGRFTISRDNSKNTLYLQMNSLRAEDTAVYYCARVWSPDGYPGFDYWGQGTLVTVSS
VL: not shown
notes: as for B2
binding result [2]: binds

B4: Fab53 (Fab, V domains shown)
VH: QVQLVESGGGVVQPGRSLRLSCAASGFTFSSYGMHWVRQAPGKGLEWVAVISYEGSNKYYADSVKGRFTISRDNSKNTLYLQMNSLRAEDTAVYYCARVYVYRSYRHSSGYGYPGFDVWGQGTLVTVSS
VL: not shown
notes: as for B2
binding result [2]: binds

B5: Fab61 (Fab, V domains shown)
VH: QVQLVESGGGVVQPGRSLRLSCAASGFTFSSYGMHWVRQAPGKGLEWVAVISYEGSNKYYADSVKGRFTISRDNSKNTLYLQMNSLRAEDTAVYYCARVYPYPYVYAESDGSYPGFDVWGQGTLVTVSS
VL: not shown
notes: as for B2
binding result [2]: binds

B6: BB_VH3-33 (antibody, V domains shown)
VH: QVQLVESGGGVVQPGRSLRLSCAASGFTFSSYGMHWVRQAPGKGLEWVAVIWYDGSNKYYADSVKGRFTISRDNSKNTLYLQMNSLRAEDTAVYYCAREHSYGGYFDYWGQGTLVTVSS
VL: not shown
binding result (human recPrP_(23-230) [3]): binds

B7: Fab71 (Fab, V domains shown)
VH: QVQLVESGGGVVQPGRSLRLSCAASGFTFSSYGMHWVRQAPGKGLEWVAVISYEGSNKYYADSVKGRFTISRDNSKNTLYLQMNSLRAEDTAVYYCARHVSYGGYFDYWGQGTLVTVSS
VL: not shown
notes: also called anti-OR_(51-91) Fab71; source: E. coli BL21(DE3), pPE2 vector, purified by IMAC (Ni-NTA)
binding result (peptide P17): binds | Kd [4]: 6.2 nM | koff [4]: 0.00245 s⁻¹

B8: Fab71 (Fab, V domains shown)
VH: QVQLVESGGGVVQPGRSLRLSCAASGFTFSSYGMHWVRQAPGKGLEWVAVISYEGSNKYYADSVKGRFTISRDNSKNTLYLQMNSLRAEDTAVYYCARHVSYGGYFDYWGQGTLVTVSS
VL: not shown
notes: as for B2
EC50 [5]: 24.9 nM

B9: Fab8 (Fab, V domains shown)
VH: QVQLVESGGGVVQPGRSLRLSCAASGFTFSSYGMHWVRQAPGKGLEWVAVISYEGSNKYYADSVKGRFTISRDNSKNTLYLQMNSLRAEDTAVYYCARHYGGRLDYWGQGTLVTVSS
VL: not shown
notes: as for B2
binding result [2]: binds

B10: Fab12 (Fab, V domains shown)
VH: QVQLVESGGGVVQPGRSLRLSCAASGFTFSSYGMHWVRQAPGKGLEWVAVISYEGSNKYYADSVKGRFTISRDNSKNTLYLQMNSLRAEDTAVYYCARHYGGQLDYWGQGTLVTVSS
VL: not shown
notes: as for B2
binding result [2]: binds

B11: Fab10 (Fab, V domains shown)
VH: QVQLVESGGGVVQPGRSLRLSCAASGFTFSSYGMHWVRQAPGKGLEWVAVISYEGSNKYYADSVKGRFTISRDNSKNTLYLQMNSLRAEDTAVYYCARHYGGWFDYWGQGTLVTVSS
VL: not shown
notes: as for B2
binding result [2]: binds

B12: Fab69 (Fab, V domains shown)
VH: QVQLVESGGGVVQPGRSLRLSCAASGFTFSSYGMHWVRQAPGKGLEWVAVISYEGSNKYYADSVKGRFTISRDNSKNTLYLQMNSLRAEDTAVYYCARVHPGVHYRPGGFDYWGQGTLVTVSS
VL: not shown
notes: as for B2
binding result [2]: binds

B13: BB_VH3-21 (antibody, V domains shown)
VH: EVQLVESGGGLVKPGGSLRLSCAASGFTFSSYSMNWVRQAPGKGLEWVSSISSSSSYIYYADSVKGRFTISRDNAKNSLYLQMNSLRAEDTAVYYCARVSYGGYFDYWGQGTLVTVSS
VL: not shown
binding result (human recPrP_(23-230) [3]): binds

B14: BB_VH3-66 (antibody, V domains shown)
VH: EVQLVESGGGLVQPGGSLRLSCAASGFTVSSNYMSWVRQAPGKGLEWVSVIYSGGSTYYADSVKGRFTISRDNSKNTLYLQMNSLRAEDTAVYYCARSGSYGGYFDYWGQGTLVTVSS
VL: not shown
binding result (human recPrP_(23-230) [3]): binds

B15: DW_VH3-53 (antibody, V domains shown)
VH: EVQLVETGGGLIQPGGSLRLSCAASGFTVSSNYMSWVRQAPGKGLEWVSVIYSGGSTYYADSVKGRFTISRDNSKNTLYLQMNSLRAEDTAVYYCARVSYGGYYFDYWGQGTLVTVSS
VL: not shown
binding result (human recPrP_(23-230) [3]): binds
